Test results: patent US20200362026A1 (INSTITUTE FOR RESEARCH IN BIOMEDICINE, published 2020)
Values belong to the binder of their own block, whether it stands above or below them.

Experiments:
[1] = target: T1, human GM-CSF (granulocyte macrophage-colony stimulating factor) (human, UniProt P04141 18-144); assay: SPR (ProteOn), mAb captured on protein A, GM-CSF as analyte, Langmuir fit
T1 construct: Soluble cytokine used in ELISA, SPR, TF-1 bioassay and immune complex formation; also called recombinant GM-CSF
T1 sequence (P04141 18-144 limits assumed): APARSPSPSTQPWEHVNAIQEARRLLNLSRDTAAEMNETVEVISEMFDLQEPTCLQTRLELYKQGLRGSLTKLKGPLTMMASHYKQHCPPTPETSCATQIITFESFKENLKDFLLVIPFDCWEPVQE
Experimental: (§1) The kinetics of binding was determined by surface plasmon resonance (SPR). […] HEPES buffered saline (HBS) (10 mM HEPES, pH 7.4, 150 mM NaCl, 3 mM EDTA, 0.005% surfactant Tween-20) was used as running buffer. All injections were made at flow rate of 100 µl/min. […] Injection time and dissociation time were 120 s and 600 s, respectively. Each binding interaction of mAbs with GM-CSF was assessed using a ProteON XPR36 instrument (Biorad) and data processed with ProteOn Manager Software. Ka, Kd and KD were calculated applying the Langmuir fit model.

[2] = target: T2, mouse GM-CSF (mouse, UniProt P01587 18-141); assay: ELISA
T2 sequence (looked up): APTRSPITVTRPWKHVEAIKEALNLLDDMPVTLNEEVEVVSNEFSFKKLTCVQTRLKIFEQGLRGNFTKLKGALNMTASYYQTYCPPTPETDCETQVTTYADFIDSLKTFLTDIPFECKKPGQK

[3] = target: T3, rat GM-CSF (rat, UniProt P48750 18-144); assay: ELISA
T3 sequence (looked up): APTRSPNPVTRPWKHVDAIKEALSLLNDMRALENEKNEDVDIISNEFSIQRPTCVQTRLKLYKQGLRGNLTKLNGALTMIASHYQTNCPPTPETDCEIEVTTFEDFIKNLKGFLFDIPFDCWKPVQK

[4] = target: T1, human GM-CSF (granulocyte …); assay: ELISA on human GM-CSF
Experimental: All antibodies were recombinantly produced as IgG1 by transient transfection of HEK 293 Freestyle Cells (Invitrogen) using polyethylenimine (PEI). The antibodies were then tested for binding to human GM-CSF by ELISA. […] The EC50 values (ng/ml) were determined by ELISA and calculated for every sample by nonlinear regression analysis using GraphPad Prism 5 software.

[5] = target: T1, human GM-CSF (granulocyte …); assay: cell-based or functional assay
[6] = target: T1, human GM-CSF (granulocyte …); assay: cell-based or functional assay; remark: listed apart in the source
[7] = target: T4, FcγRIIb (UniProt P31994 43-310, limits assumed); assay: flow cytometry, TZM-bl FcγRIIb cells; average ratio of binding in presence and in absence of GM-CSF
T4 construct: whole, on cells; also called FcgRIIb; Fcγ receptor IIb
T4 sequence (looked up): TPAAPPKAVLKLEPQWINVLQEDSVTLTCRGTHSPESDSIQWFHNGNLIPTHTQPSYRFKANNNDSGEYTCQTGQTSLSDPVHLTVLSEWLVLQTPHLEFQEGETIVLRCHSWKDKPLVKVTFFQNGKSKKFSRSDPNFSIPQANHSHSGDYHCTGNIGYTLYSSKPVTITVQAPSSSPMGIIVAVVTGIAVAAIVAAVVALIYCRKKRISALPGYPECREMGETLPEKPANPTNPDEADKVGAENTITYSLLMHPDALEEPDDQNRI
Experimental: (§2) Expression of specific FcγRs was assessed by staining TZM-b1 cells with FITC-conjugated anti-CD64 (anti-FcγRI), anti-CD32 (anti-FcγRIIa and anti-FcγRIIb) and anti-CD16 (anti-FcγRIIIa) antibodies (all from BD Pharmingen). Untrasfected and transfected TZM-b1 cells were washed with staining buffer (PBS with 10% Fetal Bovine Serum and 2 mM EDTA) and seeded in 96-well-plates at a density of 50,000 cells per well. […] The LALA versions of all antibodies and a mAb with a different specificity were included as controls. Samples were incubated at 37° C. for 30 min to allow the formation of immune complexes and then cooled down to 4° C. before adding them to TZM-b1 cells for 30 min. Cells were washed twice and stained with anti-human IgG Fcγ fragment specific F(ab′)2 fragment (Jackson ImmunoResearch). Samples were analyzed on BD FACSCanto (BD Biosciences) and median intensity fluorescence was analyzed and compared between samples.
(§3) To address the engagement of Fcγ receptors, immune complexes formed between GM-CSF and multispecific antibodies were tested for their capacity to bind to TZM-b1 cells expressing FcγRIIa and FcγRIIb receptors. Multispecific antibodies were mixed with 0.05 μg/ml of GM-CSF, or staining buffer. Samples were incubated at 37° C. for 30 min to allow the formation of immune complexes and then cooled down to 4° C. before adding them to TZM-b1 cells for 30 minutes. Cells were washed twice and stained with anti-human IgG Fcγ fragment specific F(ab′)2 fragment. Samples were analyzed on BD FACSCanto (BD Biosciences) and median intensity fluorescence was analyzed and compared between samples.

[8] = target: T4, FcγRIIb; assay: flow cytometry, TZM-bl cells expressing FcγRIIb, immune complex with low GM-CSF
Experimental: as §2, §3

[9] = target: T5, FcγRIIa (UniProt P12318 34-317, limits assumed); assay: flow cytometry, TZM-bl cells expressing FcγRIIa, immune complex with high GM-CSF
T5 construct: whole, on cells; also called FcgRIIa; Fcγ receptor IIa
T5 sequence (looked up): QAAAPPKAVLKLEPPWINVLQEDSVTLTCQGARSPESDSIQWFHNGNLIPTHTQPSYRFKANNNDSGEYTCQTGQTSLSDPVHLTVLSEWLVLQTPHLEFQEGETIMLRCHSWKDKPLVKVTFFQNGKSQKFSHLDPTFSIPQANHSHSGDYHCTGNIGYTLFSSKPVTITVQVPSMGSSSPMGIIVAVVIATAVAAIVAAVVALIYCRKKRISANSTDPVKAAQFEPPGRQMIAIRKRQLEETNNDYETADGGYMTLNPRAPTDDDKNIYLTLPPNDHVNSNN
Experimental: as §3

[10] = target: T5, FcγRIIa; assay: flow cytometry, TZM-bl FcγRIIa cells; average ratio of binding in presence and in absence of GM-CSF
Experimental: as §3

[11] = target: T1, human GM-CSF (granulocyte …); assay: SPR; GM-CSF injected at 400, 200, 100, 50, 25 nM and buffer over Ts1GC1; 120 s association, 600 s dissociation
Experimental: as §1
All multispecific antibodies were tested for binding to GM-CSF by ELISA.

[12] = target: T4, FcγRIIb; assay: flow cytometry, TZM-bl cells expressing FcγRIIb, mAb alone (w/o GM-CSF)
Experimental: as §2, §3

[13] = target: T5, FcγRIIa; assay: flow cytometry, TZM-bl cells expressing FcγRIIa, mAb alone (w/o GM-CSF)
Experimental: as §2, §3

[14] = target: T5, FcγRIIa; assay: flow cytometry, TZM-bl cells expressing FcγRIIa, immune complex with low GM-CSF
Experimental: as §2, §3

[15] = target: T1, human GM-CSF (granulocyte …); assay: ELISA on GM-CSF
[16] = target: T4, FcγRIIb; assay: flow cytometry, TZM-bl cells expressing FcγRIIb, immune complex with high GM-CSF
Experimental: as §2, §3

Kd [1]: 0.24 nM
koff [1]: 7.7e-05 s⁻¹
kon [1]: 310000 M⁻¹ s⁻¹
fold greater concentration than Ts1GC2a, less stringent conditions [5]: 690 fold
IC90 less stringent conditions (50 pg/ml GM-CSF, 1,000 TF-1/well) [6]: 0.177 mg/L
IC90 more stringent conditions (500 pg/ml GM-CSF, 1,000 TF-1/well) [6]: 1.97 mg/L
IC90 stringent conditions (50 pg/ml GM-CSF, 10,000 TF-1/well) [6]: 0.798 mg/L
IC90 very stringent conditions (500 pg/ml GM-CSF, 10,000 TF-1/well) [6]: 19.8 mg/L
EC50 [4]: 0.0753 mg/L
B3: Namilumab (antibody, V domains shown)
VH: QVQLVQSGAEVKKPGASVKVSCKAFGYPFTDYLLHWVRQAPGQGLEWVGWLNPYSGDTNYAQKFQGRVTMTRDTSISTAYMELSRLRSDDTAVYYCTRTTLISVYFDYWGQGTMVTVSS
VL: DIQMTQSPSSVSASVGDRVTIACRASQNIRNILNWYQQRPGKAPQLLIYAASNLQSGVPSRFSGSGSGTDFTLTINSLQPEDFATYYCQQSYSMPRTFGGGTKLEIK

Kd [1]: 0.69 nM
koff [1]: 0.00065 s⁻¹
kon [1]: 950000 M⁻¹ s⁻¹
binding result [2]: no binding
binding result [3]: no binding
EC50 [4]: 0.0594 mg/L
B4: GCA21 (antibody, IgG1, V domains shown)
VH: QVQLMESGGGVVQPGRSLRLSCSAFGFTFSNYPMHWVRQAPGKGLEWVAIILPDGNRKNYGRSVTGRFTISRDNSNNSLYLQMNNLTTEDTAMYYCTRDGTYYSNGGVYQTYRRFFDFWGRGTLVTVSS
VL: DIQMTQSPSTLSTSVGDRVTITCRASQNILNWLAWYQQKPGNAPNLLIYKASDLQSGVPSRFSGSGSGTEFTLTISSLQPDDFATYYCQHYNSYPLTFGGGTKVEIKR
notes: also called GCA21 antibody

More lines, now with the values behind:

B1: GCA7 (antibody, human IgG1, kappa, V domains shown)
VH: GVQLVQSGGGLVQPGGSLRLSCAASGFTVSTNYMSWVRQAPGKGLEWVSILYAGGVTRYADSVKTRFTISRDNSKNTLFLQMNALSAEDTAIYYCAKHYDSGYSTIDHFDSWGQGTLVTVSS
VL: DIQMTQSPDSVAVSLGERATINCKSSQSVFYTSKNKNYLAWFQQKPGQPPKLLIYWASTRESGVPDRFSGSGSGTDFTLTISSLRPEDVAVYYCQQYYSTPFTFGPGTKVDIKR
notes: also called GCA7 antibody
Kd [1]: 0.38 nM
koff [1]: 6e-05 s⁻¹
kon [1]: 240000 M⁻¹ s⁻¹
binding result [2]: no binding
binding result [3]: no binding
EC50 [4]: 0.187 mg/L

B2: GCE536 (antibody, human IgG1, kappa, V domains shown)
VH: QLQLVQSGTEVKKPGASVKVSCKSSGYVFTSYYLVWVRQAPGQGLEWMATISPGDVNTSYEQRFQGRVTVTTDASTNTVDMELRSLRSEDTAVYYCARGPRSKPPYLYFALDVWGQGTAVTVSS
VL: EIVLTQSPGTLSLSPGETAILSCRASQSVSSSLLAWYQQKPGQAPRLLIYGASNRATGIRGRFSGSGSGTDFTLTISRLEPEDFVLYYCQHYGSRVTFGQGTKLEIKR
notes: also called GCE536 antibody
Kd [1]: 0.18 nM
koff [1]: 0.00011 s⁻¹
kon [1]: 660000 M⁻¹ s⁻¹
binding result [2]: no binding
binding result [3]: no binding
EC50 [4]: 0.0614 mg/L

B5: Ts1GC1 trispecific antibody (antibody, human IgG1, kappa)
heavy: not shown
light: DIQMTQSPSTLSTSVGDRVTITCRASQNILNWLAWYQQKPGNAPNLLIYKASDLQSGVPSRFSGSGSGTEFTLTISSLQPDDFATYYCQHYNSYPLTFGGGTKVEIKRTVAAPSVFIFPPSDEQLKSGTASVVCLLNNFYPREAKVQWKVDNALQSGNSQESVTEQDSKDSTYSLSSTLTLSKADYEKHKVYACEVTHQGLSSPVTKSFNRGEC
notes: Trispecific hexavalent IgG1, construct type Ts1; specificities GCA21 + GCA7 + GCB59; also called TsGC1
Average RATIO FcgRIIb [7]: 2.51 ratio
MFI [8]: 528000 MFI
MFI [9]: 216000 MFI
Average RATIO FcgRIIa [10]: 3.18 ratio
Kd [11]: 0.0875 nM
koff [11]: 3.46e-05 s⁻¹
kon [11]: 395000 M⁻¹ s⁻¹
MFI [12]: 350000 MFI
MFI [13]: 52400 MFI
IC90 less stringent conditions (50 pg/ml GM-CSF, 1,000 TF-1/well) [6]: 0.000352 mg/L
IC90 more stringent conditions (500 pg/ml GM-CSF, 1,000 TF-1/well) [6]: 0.00296 mg/L
IC90 stringent conditions (50 pg/ml GM-CSF, 10,000 TF-1/well) [6]: 0.000283 mg/L
IC90 very stringent conditions (500 pg/ml GM-CSF, 10,000 TF-1/well) [6]: 0.00281 mg/L
MFI [14]: 118000 MFI
EC50 [15]: 0.027 mg/L
MFI [16]: 1.23e+06 MFI

B6: GCB59 (antibody, IgG1, V domains shown)
VH: EVQLVESGGDLVKAGGSLRLSCAVSGLSFSSSGMNWVRQAPGKGLEWISSISGSQNYKYYADSVKGRFVVSRDNARNFLYLQMDSLRAEDTAVYFCVGGFPYWLPPSDFSGFHVWGQGTTVTVSS
VL: SYVLTQPPSVSVAPGQTASLTCGGTNIGSKSVHWYQQKAGQAPVLVVYADNDRPSGVPERFSGSNSGNTATLTISRVEAEDESDYFCQVWDGNTDHVVFGGGTKLTVLG
notes: also called GCB59 antibody
Kd [1]: 0.68 nM
koff [1]: 0.0012 s⁻¹
kon [1]: 1.7e+06 M⁻¹ s⁻¹
binding result [2]: no binding
binding result [3]: no binding
EC50 [4]: 0.308 mg/L
